Biological target: T1, human interleukin-38 (IL-38) (human, UniProt Q8WWZ1 1-152)
T1 construct: The Adipogen protein is called full length; also called IL1F10/IL38; IL1F10
T1 sequence (looked up): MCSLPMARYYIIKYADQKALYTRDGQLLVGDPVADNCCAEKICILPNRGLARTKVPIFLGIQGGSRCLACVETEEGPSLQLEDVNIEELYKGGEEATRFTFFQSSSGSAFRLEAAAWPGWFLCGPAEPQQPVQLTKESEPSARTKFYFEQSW
Test: BLI (Octet QKe), antibody on anti-mouse Fc biosensors, soluble IL-38, 1:1 model
Protocol: Antibody was loaded to AMC probes, blocked in the kinetics buffer for 1 min (baseline) and dipped into an appropriate IL-38 solution. IL-38 association to antibodies of interest was measured for 180 seconds at 28° C. Biosensors were subsequently dipped into kinetics buffer-containing wells and the protein dissociation was measured for 600 s. KD, Kon and Kdis values were identified using the 1:1 built-in model of the ForteBio's Data Analysis 9 software.

Kd: 0.721 nM
B1: CD1-M3 (antibody, V domains shown)
VH: EVQLQQSGPELVKPGASVKIPCKASGYTFTDYNMDWVKQSHGKSLEWIGDINPNNGGTIYNQKFKGKATLTVDKSSSTAYMELRSLTSEDTAVYYCSRPYYGYFAYWGQGTLVTVSA
VL: DVVMTQSPLSLPVSLGDQASISCRSSQSLVHSHENTFLHWYLQKPGQSPKLLIYRVSNRFSGVPDRFSGSGSGTDFTLKISRVEAEDLGVYFCSQSTHVPLTFGAGTKLELK
notes: Mouse monoclonal from a hybridoma of a CD-1 mouse immunized with full length recombinant IL-38
